In patent publication US20240409935A1 (UNM RAINFOREST INNOVATIONS, published 2024):

B1: endogenous PACT (other, UniProt O75569 1-313, looked up)
chain: MSQSRHRAEAPPLEREDSGTFSLGKMITAKPGKTPIQVLHEYGMKTKNIPVYECERSDVQIHVPTFTFRVTVGDITCTGEGTSKKLAKHRAAEAAINILKANASICFAVPDPLMPDPSKQPKNQLNPIGSLQELAIHHGWRLPEYTLSQEGGPAHKREYTTICRLESFMETGKGASKKQAKRNAAEKFLAKFSNISPENHISLTNVVGHSLGCTWHSLRNSPGEKINLLKRSLLSIPNTDYIQLLSEIAKEQGFNITYLDIDELSANGQYQCLAELSTSPITVCHGSGISCGNAQSDAAHNALQYLKIIAERK
notes: also called PRKRA
B2: ALIX (cellular) (other, UniProt Q8WUM4 2-868, looked up)
chain: ATFISVQLKKTSEVDLAKPLVKFIQQTYPSGGEEQAQYCRAAEELSKLRRAAVGRPLDKHEGALETLLRYYDQICSIEPKFPFSENQICLTFTWKDAFDKGSLFGGSVKLALASLGYEKSCVLFNCAALASQIAAEQNLDNDEGLKIAAKHYQFASGAFLHIKETVLSALSREPTVDISPDTVGTLSLIMLAQAQEVFFLKATRDKMKDAIIAKLANQAADYFGDAFKQCQYKDTLPKEVFPVLAAKHCIMQANAEYHQSILAKQQKKFGEEIARLQHAAELIKTVASRYDEYVNVKDFSDKINRALAAAKKDNDFIYHDRVPDLKDLDPIGKATLVKSTPVNVPISQKFTDLFEKMVPVSVQQSLAAYNQRKADLVNRSIAQMREATTLANGVLASLNLPAAIEDVSGDTVPQSILTKSRSVIEQGGIQTVDQLIKELPELLQRNREILDESLRLLDEEEATDNDLRAKFKERWQRTPSNELYKPLRAEGTNFRTVLDKAVQADGQVKECYQSHRDTIVLLCKPEPELNAAIPSANPAKTMQGSEVVNVLKSLLSNLDEVKKEREGLENDLKSVNFDMTSKFLTALAQDGVINEEALSVTELDRVYGGLTTKVQESLKKQEGLLKNIQVSHQEFSKMKQSNNEANLREEVLKNLATAYDNFVELVANLKEGTKFYNELTEILVRFQNKCSDIVFARKTERDELLKDLQQSIAREPSAPSIPTPAYQSSPAGGHAPTPPTPAPRTMPPTKPQPPARPPPPVLPANRAPSATAPSPVGAGTAAPAPSQTPGSAPPPQAQGPPYPTYPGYPGYCQMPMPMGYNPYAYGQYNMPYPPVYHQSPGQAPYPGPQQPSYPFPQPPQQSYYPQQ
notes: also called PDCD6IP
B3: endogenous PKR (enzyme, UniProt P19525 2-551, looked up)
chain: AGDLSAGFFMEELNTYRQKQGVVLKYQELPNSGPPHDRRFTFQVIIDGREFPEGEGRSKKEAKNAAAKLAVEILNKEKKAVSPLLLTTTNSSEGLSMGNYIGLINRIAQKKRLTVNYEQCASGVHGPEGFHYKCKMGQKEYSIGTGSTKQEAKQLAAKLAYLQILSEETSVKSDYLSSGSFATTCESQSNSLVTSTLASESSSEGDFSADTSEINSNSDSLNSSSLLMNGLRNNQRKAKRSLAPRFDLPDMKETKYTVDKRFGMDFKEIELIGSGGFGQVFKAKHRIDGKTYVIKRVKYNNEKAEREVKALAKLDHVNIVHYNGCWDGFDYDPETSDDSLESSDYDPENSKNSSRSKTKCLFIQMEFCDKGTLEQWIEKRRGEKLDKVLALELFEQITKGVDYIHSKKLIHRDLKPSNIFLVDTKQVKIGDFGLVTSLKNDGKRTRSKGTLRYMSPEQISSQDYGKEVDLYALGLILAELLHVCDTAFETSKFFTDLRDGIISDIFDKKEKTLLQKLLSKKPEDRPNTSEILRTLTVWKKSPEKNERHTC
notes: also called EIF2AK2; Protein Kinase R
B4: Myc-PKR (enzyme, UniProt P19525 1-551, looked up)
chain: MAGDLSAGFFMEELNTYRQKQGVVLKYQELPNSGPPHDRRFTFQVIIDGREFPEGEGRSKKEAKNAAAKLAVEILNKEKKAVSPLLLTTTNSSEGLSMGNYIGLINRIAQKKRLTVNYEQCASGVHGPEGFHYKCKMGQKEYSIGTGSTKQEAKQLAAKLAYLQILSEETSVKSDYLSSGSFATTCESQSNSLVTSTLASESSSEGDFSADTSEINSNSDSLNSSSLLMNGLRNNQRKAKRSLAPRFDLPDMKETKYTVDKRFGMDFKEIELIGSGGFGQVFKAKHRIDGKTYVIKRVKYNNEKAEREVKALAKLDHVNIVHYNGCWDGFDYDPETSDDSLESSDYDPENSKNSSRSKTKCLFIQMEFCDKGTLEQWIEKRRGEKLDKVLALELFEQITKGVDYIHSKKLIHRDLKPSNIFLVDTKQVKIGDFGLVTSLKNDGKRTRSKGTLRYMSPEQISSQDYGKEVDLYALGLILAELLHVCDTAFETSKFFTDLRDGIISDIFDKKEKTLLQKLLSKKPEDRPNTSEILRTLTVWKKSPEKNERHTC
notes: not shown: Myc tag
B5: GFP-PKR (enzyme, UniProt P19525 1-551, looked up)
chain: B4 chain
notes: not shown: GFP
B6: GFP-PACT (other, UniProt O75569 1-313, looked up)
chain: B1 chain
notes: not shown: GFP

Columns and labels:
FLAG-eIF2α = target: T1, FLAG-eIF2α (UniProt P05198 1-315); test: co-IP with anti-FLAG from HEK293T cells, 1 mM LLOMe 30 min
T1 construct: not shown: FLAG tag
T1 sequence (P05198 whole entry): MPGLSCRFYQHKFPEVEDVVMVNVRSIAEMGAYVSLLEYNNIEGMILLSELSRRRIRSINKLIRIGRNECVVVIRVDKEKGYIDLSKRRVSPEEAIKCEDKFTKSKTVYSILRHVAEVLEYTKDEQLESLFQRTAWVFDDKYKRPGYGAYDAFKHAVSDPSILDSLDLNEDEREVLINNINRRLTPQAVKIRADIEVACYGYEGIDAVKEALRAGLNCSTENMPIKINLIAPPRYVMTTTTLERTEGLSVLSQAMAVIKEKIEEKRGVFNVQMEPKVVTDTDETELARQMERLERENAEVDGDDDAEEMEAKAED

FLAG-ALIX (full length) [1] = target: T2, FLAG-ALIX (full length) (UniProt Q8WUM4 1-868); test: as above
T2 construct: also called full-length ALIX; not shown: FLAG tag
T2 sequence (looked up): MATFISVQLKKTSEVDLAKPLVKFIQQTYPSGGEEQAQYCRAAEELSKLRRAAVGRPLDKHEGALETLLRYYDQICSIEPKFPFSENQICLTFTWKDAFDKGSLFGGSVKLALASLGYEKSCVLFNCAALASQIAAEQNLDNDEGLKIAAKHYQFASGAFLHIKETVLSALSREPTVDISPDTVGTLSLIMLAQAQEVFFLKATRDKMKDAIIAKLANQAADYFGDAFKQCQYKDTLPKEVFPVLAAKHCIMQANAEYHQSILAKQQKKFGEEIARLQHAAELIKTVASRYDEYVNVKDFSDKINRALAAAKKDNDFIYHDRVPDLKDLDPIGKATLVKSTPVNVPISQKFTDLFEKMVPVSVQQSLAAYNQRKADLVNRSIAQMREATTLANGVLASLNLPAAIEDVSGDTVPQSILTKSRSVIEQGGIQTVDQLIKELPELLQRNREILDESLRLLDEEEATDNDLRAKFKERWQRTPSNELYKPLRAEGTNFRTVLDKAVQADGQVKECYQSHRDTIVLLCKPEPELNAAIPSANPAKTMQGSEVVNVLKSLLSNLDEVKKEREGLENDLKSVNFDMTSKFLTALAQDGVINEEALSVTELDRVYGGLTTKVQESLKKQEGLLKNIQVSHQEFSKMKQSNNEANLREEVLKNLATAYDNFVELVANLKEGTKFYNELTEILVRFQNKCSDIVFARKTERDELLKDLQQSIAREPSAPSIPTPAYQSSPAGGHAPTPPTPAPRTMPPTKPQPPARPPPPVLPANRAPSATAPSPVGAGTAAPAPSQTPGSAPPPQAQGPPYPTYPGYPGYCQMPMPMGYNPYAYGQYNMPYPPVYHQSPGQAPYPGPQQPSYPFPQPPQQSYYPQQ

FLAG-PKR = target: T3, FLAG-PKR (UniProt P19525 1-551); test: co-IP of FLAG-PKR and PACT in HEK293T cells
T3 construct: not shown: FLAG tag

APEX2-eIF2α = target: T4, APEX2-eIF2α (UniProt P05198 1-315); test: APEX2-eIF2α proximity biotinylation, LC/MS/MS, LLOMe against control
T4 construct: also called APEX2-eIF2α fusion
T4 sequence (P05198 whole entry, the tested form may be a part): as the sequence (P05198 whole entry) above

FLAG-ALIX (full length) [2] = target: T2, FLAG-ALIX (full length); test: co-IP with anti-FLAG from HEK293T cells expressing FLAG tagged ALIX constructs and Myc-PKR
ALIX (cellular) = target: B2; test: confocal microscopy of GFP-PKR/PACT and ALIX in U2OS cells, 2 mM LLOMe
endogenous PKR = target: B3; test: co-IP with anti-GFP from HEK293T cells transfected with FLAG or FLAG-ALIX, 1 mM LLOMe 30 min

What does the source list for B1?
binding result (FLAG-eIF2α): binds; binding result (FLAG-ALIX (full length) [1]): binds; binding result (FLAG-PKR): binds

For B2, which “fold increase in association with eIF2α (LLOMe/CTR)” value (APEX2-eIF2α) is on record?
Its value is greater than 10 fold.

Does B3 bind (FLAG-ALIX (full length) [1])?
Result: binds

Does B4 bind (FLAG-ALIX (full length) [2])?
Result: binds

Does B5 bind (ALIX (cellular))?
Result: binds

Does B6 bind (ALIX (cellular))?
Result: binds

Does B6 bind (endogenous PKR)?
Result: binds
